The target of series [1] is THRa:RXRa (Homo sapiens, UniProt P10827;P19793 full;full). In words: no ligand; PBM; 90 nM : 90 nM RXRa; PBS pH 7.4, 2% milk, 0.02% Triton X-100, 1 mM DTT, BSA, 0.4 mg/ml salmon testes DNA. Particulars: tags: His kept;His cleaved; copies: 1;1; label: surface-attached array probe.
In series [2] the target is RXRa (Homo sapiens, UniProt P19793). The series can be described thus: no ligand; PBM; 180 nM; PBS pH 7.4, 2% milk, 0.02% Triton X-100, 1 mM DTT, BSA, 0.4 mg/ml salmon testes DNA. Conditions: tags: His cleaved; chain copies: 2; label: surface-attached array probe.
In series [3] the target is PPARg:RXRa (Homo sapiens, UniProt P37231;P19793 full;full). The series can be described thus: no ligand; PBM; 180 nM : 90 nM RXRa; PBS pH 7.4, 2% milk, 0.02% Triton X-100, 1 mM DTT, BSA, 0.4 mg/ml salmon testes DNA. Conditions: tags: His kept;His cleaved; copies: 1;1; label: surface-attached array probe.
In series [4] the target is RARb:RXRa (Homo sapiens, UniProt P10826;P19793 full;full). In words: no ligand; PBM; 270 nM : 90 nM RXRa; PBS pH 7.4, 2% milk, 0.02% Triton X-100, 1 mM DTT, BSA, 0.4 mg/ml salmon testes DNA. Particulars: tags: His kept;His cleaved; copies: 1;1; label: surface-attached array probe. The gist of the method:
(§1)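 Random background probes are the reference for binding z-scores. These scores derive from regression-normalized fluorescence on custom Agilent 4×180K protein-binding microarrays incubated 1 h with ligand-free nuclear receptor dimers. Binding was detected with antibodies against each partner (one per run).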

The target in series [5] is VDR:RXRa (Homo sapiens, UniProt P11473;P19793 full;full). Described as above. Conditions: tags: His kept;His cleaved; copies: 1;1; label: surface-attached array probe. The gist of the method:
as §1

The target of series [6] is LXRa:RXRa (Homo sapiens, UniProt Q13133;P19793 full;full). Described as above. Conditions: tags: His kept;His cleaved; copies: 1;1; label: surface-attached array probe. An outline of the steps: as §1
Sequence of LXRa:RXRa (Q13133 whole entry, chain 1 of 2): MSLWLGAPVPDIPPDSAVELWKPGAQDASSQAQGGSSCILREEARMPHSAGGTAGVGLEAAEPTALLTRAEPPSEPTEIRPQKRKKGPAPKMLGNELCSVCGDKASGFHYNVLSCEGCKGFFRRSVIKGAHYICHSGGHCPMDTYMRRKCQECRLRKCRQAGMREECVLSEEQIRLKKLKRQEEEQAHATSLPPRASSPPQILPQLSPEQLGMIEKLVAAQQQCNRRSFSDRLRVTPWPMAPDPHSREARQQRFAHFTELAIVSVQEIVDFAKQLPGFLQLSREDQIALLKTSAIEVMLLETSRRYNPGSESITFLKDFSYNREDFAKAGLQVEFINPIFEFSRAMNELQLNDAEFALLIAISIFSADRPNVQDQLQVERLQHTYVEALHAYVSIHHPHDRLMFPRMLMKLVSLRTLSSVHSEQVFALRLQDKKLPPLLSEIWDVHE
Sequence of LXRa:RXRa (P19793 whole entry, chain 2 of 2): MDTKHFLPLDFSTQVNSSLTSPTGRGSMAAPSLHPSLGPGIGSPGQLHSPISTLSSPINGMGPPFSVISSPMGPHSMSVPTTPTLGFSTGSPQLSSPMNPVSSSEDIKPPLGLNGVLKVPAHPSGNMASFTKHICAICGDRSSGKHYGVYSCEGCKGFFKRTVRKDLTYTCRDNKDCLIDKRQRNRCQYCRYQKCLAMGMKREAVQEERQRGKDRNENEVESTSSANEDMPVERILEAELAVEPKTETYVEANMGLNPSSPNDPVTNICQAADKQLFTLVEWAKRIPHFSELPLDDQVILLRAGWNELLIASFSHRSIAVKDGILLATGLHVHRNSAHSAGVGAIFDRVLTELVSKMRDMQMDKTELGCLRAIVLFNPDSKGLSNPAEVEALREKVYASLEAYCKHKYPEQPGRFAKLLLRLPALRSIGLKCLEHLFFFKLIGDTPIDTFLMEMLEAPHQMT
Series [7] deals with PPARa:RXRa (Homo sapiens, UniProt Q07869;P19793 full;full). The series is described as above. Conditions: tags: GST kept;His cleaved; copies: 1;1; label: surface-attached array probe. An outline of the steps: as §1
Sequence of PPARa:RXRa (Q07869 whole entry, chain 1 of 2): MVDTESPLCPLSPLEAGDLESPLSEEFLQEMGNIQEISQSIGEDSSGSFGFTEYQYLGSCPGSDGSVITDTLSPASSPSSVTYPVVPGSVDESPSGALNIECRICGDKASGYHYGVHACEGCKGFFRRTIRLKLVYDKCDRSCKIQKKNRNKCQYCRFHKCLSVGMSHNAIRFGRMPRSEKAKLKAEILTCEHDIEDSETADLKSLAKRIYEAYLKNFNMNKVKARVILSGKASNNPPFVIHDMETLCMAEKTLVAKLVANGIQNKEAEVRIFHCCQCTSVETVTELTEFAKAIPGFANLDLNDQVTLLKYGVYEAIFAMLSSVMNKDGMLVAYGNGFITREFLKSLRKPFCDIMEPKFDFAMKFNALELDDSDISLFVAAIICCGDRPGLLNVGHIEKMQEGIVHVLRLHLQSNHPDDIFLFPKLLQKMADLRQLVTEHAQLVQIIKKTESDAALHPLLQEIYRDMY
Sequence of PPARa:RXRa (P19793 whole entry, chain 2 of 2): as the sequence (P19793 whole entry, chain 2 of 2) above
Series [8] concerns the target LXRb:RXRa (Homo sapiens, UniProt P55055;P19793 full;full). The description is as above. Particulars: tags: His kept;His cleaved; copies: 1;1; label: surface-attached array probe. An outline of the steps: as §1
Series [9] has as its target FXR:RXRa (Homo sapiens, UniProt Q96RI1;P19793 full;full). The description is as above. Particulars: tags: His kept;His cleaved; copies: 1;1; label: surface-attached array probe. The gist of the method:
as §1

The target of series [10] is PXR:RXRa (Homo sapiens, UniProt O75469;P19793 full;full). The description is as above. Conditions: tags: His kept;His cleaved; copies: 1;1; label: surface-attached array probe. The gist of the method: as §1
For series [11], the target named is RARa:RXRa (Homo sapiens, UniProt P10276;P19793 full;full). Described as above. Particulars: tags: His kept;His cleaved; copies: 1;1; label: surface-attached array probe. The gist of the method: as §1
Sequence of RARa:RXRa (P10276 whole entry, chain 1 of 2): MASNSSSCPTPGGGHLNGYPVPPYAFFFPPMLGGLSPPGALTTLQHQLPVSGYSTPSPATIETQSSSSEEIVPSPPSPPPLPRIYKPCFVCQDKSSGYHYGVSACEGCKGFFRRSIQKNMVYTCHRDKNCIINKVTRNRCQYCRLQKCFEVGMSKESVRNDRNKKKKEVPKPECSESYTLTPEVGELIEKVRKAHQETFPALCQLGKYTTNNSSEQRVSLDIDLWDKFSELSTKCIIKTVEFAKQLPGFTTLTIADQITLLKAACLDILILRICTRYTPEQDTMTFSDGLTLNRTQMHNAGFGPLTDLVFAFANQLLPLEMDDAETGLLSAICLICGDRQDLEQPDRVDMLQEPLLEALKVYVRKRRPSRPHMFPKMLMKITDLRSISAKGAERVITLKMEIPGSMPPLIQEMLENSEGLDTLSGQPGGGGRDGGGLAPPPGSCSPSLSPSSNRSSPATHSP
Sequence of RARa:RXRa (P19793 whole entry, chain 2 of 2): as the sequence (P19793 whole entry, chain 2 of 2) above
In series [12] the target is RARg:RXRa (Homo sapiens, UniProt P13631;P19793 full;full). The description is as above. Particulars: tags: His kept;His cleaved; copies: 1;1; label: surface-attached array probe. An outline of the steps:
as §1

The text below walks through data of PMC6555819, “Comprehensive study of nuclear receptor DNA binding provides a revised framework for understanding receptor specificity”.

Sequence of RARg:RXRa (P13631 whole entry, chain 1 of 2): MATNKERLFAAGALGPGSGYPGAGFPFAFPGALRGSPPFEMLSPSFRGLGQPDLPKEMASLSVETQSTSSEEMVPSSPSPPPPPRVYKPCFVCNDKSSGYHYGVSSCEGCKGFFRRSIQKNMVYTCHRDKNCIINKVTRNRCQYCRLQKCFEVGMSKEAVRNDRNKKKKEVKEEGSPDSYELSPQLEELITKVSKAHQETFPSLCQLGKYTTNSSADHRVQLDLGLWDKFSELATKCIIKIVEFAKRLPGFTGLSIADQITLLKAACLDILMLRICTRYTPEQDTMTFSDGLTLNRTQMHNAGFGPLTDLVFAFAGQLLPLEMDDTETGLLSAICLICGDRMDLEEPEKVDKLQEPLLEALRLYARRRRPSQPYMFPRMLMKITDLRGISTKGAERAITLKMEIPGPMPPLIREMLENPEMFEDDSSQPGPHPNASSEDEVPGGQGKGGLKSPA
Sequence of RARg:RXRa (P19793 whole entry, chain 2 of 2): as the sequence (P19793 whole entry, chain 2 of 2) above
Sequence of LXRb:RXRa (P55055 whole entry, chain 1 of 2): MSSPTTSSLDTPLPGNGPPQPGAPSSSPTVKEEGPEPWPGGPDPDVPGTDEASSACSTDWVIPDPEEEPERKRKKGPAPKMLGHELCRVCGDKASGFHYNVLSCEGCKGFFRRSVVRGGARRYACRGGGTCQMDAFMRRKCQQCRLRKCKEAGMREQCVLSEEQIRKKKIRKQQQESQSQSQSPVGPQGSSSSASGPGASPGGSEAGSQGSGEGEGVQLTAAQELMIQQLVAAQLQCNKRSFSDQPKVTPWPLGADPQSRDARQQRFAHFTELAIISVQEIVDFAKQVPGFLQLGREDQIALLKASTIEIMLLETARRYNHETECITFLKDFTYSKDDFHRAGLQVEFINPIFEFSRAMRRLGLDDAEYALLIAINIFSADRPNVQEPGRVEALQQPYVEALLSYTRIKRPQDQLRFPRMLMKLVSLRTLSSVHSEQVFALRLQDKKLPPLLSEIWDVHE
Sequence of LXRb:RXRa (P19793 whole entry, chain 2 of 2): as the sequence (P19793 whole entry, chain 2 of 2) above

B1: NRC3_wobSeed113_DR4_T8C_o1 (dsDNA)
DNA 1: GCATATGCAGGTTAGCTGGGGTCATTCAGACTAGGCGCGATTGACAGCGTAGAATGAAGG
DNA 2: CCTTCATTCTACGCTGTCAATCGCGCCTAGTCTGAATGACCCCAGCTAACCTGCATATGC
As for B1, the binding signal in series [1] was 5.52 PBM z-score against 500 random probes.

B2: NRC3_wobSeed113_DR4_G29T_o1 (dsDNA)
DNA 1: GCATATGTAGGTTAGCTGGGGTCATTCATACTAGGCGCGATTGACAGCGTAGAATGAAGG
DNA 2: CCTTCATTCTACGCTGTCAATCGCGCCTAGTATGAATGACCCCAGCTAACCTACATATGC
B2: in [1], the binding signal was 5.52 PBM z-score against 500 random probes.

B3: NRC3_wobSeed103_DR4_A13C_o1 (dsDNA)
DNA 1: GCGCATATAGGTCATACAAGGTGAAAGTCCGATTGTGCGATTGACAGCGTAGAATGAAGG
DNA 2: CCTTCATTCTACGCTGTCAATCGCACAATCGGACTTTCACCTTGTATGACCTATATGCGC
For the molecule B3, the binding signal in series [1] was 5.57 PBM z-score against 500 random probes.

B4: NRC3_wobSeed101_DR4_C18G_o1 (dsDNA)
DNA 1: GCCCTTACGGGTCACTCGAGGTTATAGCATCGGAGTGCGATTGACAGCGTAGAATGAAGG
DNA 2: CCTTCATTCTACGCTGTCAATCGCACTCCGATGCTATAACCTCGAGTGACCCGTAAGGGC
For B4, in [1], the binding signal was 5.34 PBM z-score against 500 random probes.

B5: NRC3_wobSeed26_DR1_T9A_o1 (dsDNA)
DNA 1: GCTCTAGTAGGTCAAAGGTCACACACTCGAAATGCGGCGATTGACAGCGTAGAATGAAGG
DNA 2: CCTTCATTCTACGCTGTCAATCGCCGCATTTCGAGTGTGTGACCTTTGACCTACTAGAGC
Regarding B5, the binding signal in [2] is 10.5 PBM z-score against 500 random probes; in series [3], 14.4 PBM z-score against 500 random probes; in series [4], 5.79 PBM z-score against 500 random probes; in series [5], 6.79 PBM z-score against 500 random probes; in [6], 7.19 PBM z-score against 500 random probes; in [7], 7.46 PBM z-score against 500 random probes. Also, the binding signal was 6.9 PBM z-score against 500 random probes in series [8]; 8.25 PBM z-score against 500 random probes in [9]; 7.41 PBM z-score against 500 random probes in [10]; 9.28 PBM z-score against 500 random probes in [11]; 8.88 PBM z-score against 500 random probes in series [12].

B6: NRC3_wobSeed28_DR1_C12T_o1 (dsDNA)
DNA 1: GCCCTACTGGGTCAAAGGTCATTGATTCCAATGCTCGCGATTGACAGCGTAGAATGAAGG
DNA 2: CCTTCATTCTACGCTGTCAATCGCGAGCATTGGAATCAATGACCTTTGACCCAGTAGGGC
Regarding B6, the binding signal in series [2] was 9.56 PBM z-score against 500 random probes; in [3], 13.5 PBM z-score against 500 random probes; in [4], 5.54 PBM z-score against 500 random probes; in [5] it was 6.8 PBM z-score against 500 random probes; in series [6], 6.6 PBM z-score against 500 random probes; in [7] it was 7.41 PBM z-score against 500 random probes. In addition, the binding signal in series [8] is 6.34 PBM z-score against 500 random probes; in series [10], 7.26 PBM z-score against 500 random probes; in [11], 8.75 PBM z-score against 500 random probes; in [12], 8.01 PBM z-score against 500 random probes.

B7: NRC3_wobSeed118_DR4_G24A_o1 (dsDNA)
DNA 1: GCTTACCAAGGTGAGCTGAGGTCATTGATCCAACTCGCGATTGACAGCGTAGAATGAAGG
DNA 2: CCTTCATTCTACGCTGTCAATCGCGAGTTGGATCAATGACCTCAGCTCACCTTGGTAAGC
On to B7, for which, in series [1], the binding signal was 5.35 PBM z-score against 500 random probes.

B8: NRC3_wobSeed109_DR4_T26A_o1 (dsDNA)
DNA 1: GCCGTCCAAGGTCATAGGAGGTCAGAGAAGACAGATGCGATTGACAGCGTAGAATGAAGG
DNA 2: CCTTCATTCTACGCTGTCAATCGCATCTGTCTTCTCTGACCTCCTATGACCTTGGACGGC
For B8, the binding signal in [1] was 5.62 PBM z-score against 500 random probes.

B9: NRC3_wobSeed53_DR2_C8G_o1 (dsDNA)
DNA 1: GCCCTTAGGGGTCACGAGGTTATAGCACGACGAGCGGCGATTGACAGCGTAGAATGAAGG
DNA 2: CCTTCATTCTACGCTGTCAATCGCCGCTCGTCGTGCTATAACCTCGTGACCCCTAAGGGC
In the case of B9, the binding signal in [2] was 10.1 PBM z-score against 500 random probes; in series [3], 10.3 PBM z-score against 500 random probes; in series [4] it was 5.93 PBM z-score against 500 random probes; in series [5], 7.15 PBM z-score against 500 random probes; in [6], 7.02 PBM z-score against 500 random probes; in series [7] it was 7.21 PBM z-score against 500 random probes. Also, the binding signal in series [8] is 6.15 PBM z-score against 500 random probes; in [9], 8.88 PBM z-score against 500 random probes; in [10], 6.73 PBM z-score against 500 random probes; in series [11], 8.32 PBM z-score against 500 random probes; in series [12], 8.51 PBM z-score against 500 random probes.

B10: NRC3_wobSeed117_DR4_A15C_o1 (dsDNA)
DNA 1: GCCGTCAAAGTTCACCTAAGGTAACGTAAAGCACGCGCGATTGACAGCGTAGAATGAAGG
DNA 2: CCTTCATTCTACGCTGTCAATCGCGCGTGCTTTACGTTACCTTAGGTGAACTTTGACGGC
Consider B10, for which the binding signal in series [1] is 5.54 PBM z-score against 500 random probes.

B11: NRC3_wobSeed117_DR4_C16T_o1 (dsDNA)
DNA 1: GCCGTCAAAGTTCAATTAAGGTAACGTAAAGCACGCGCGATTGACAGCGTAGAATGAAGG
DNA 2: CCTTCATTCTACGCTGTCAATCGCGCGTGCTTTACGTTACCTTAATTGAACTTTGACGGC
As for B11, in [1], the binding signal is 5.49 PBM z-score against 500 random probes.

B12: NRC3_wobSeed114_DR4_G17C_o1 (dsDNA)
DNA 1: GCAATACAGGGTCATCCTAGGCCAGAGTACGCACAGGCGATTGACAGCGTAGAATGAAGG
DNA 2: CCTTCATTCTACGCTGTCAATCGCCTGTGCGTACTCTGGCCTAGGATGACCCTGTATTGC
Regarding B12, the binding signal in series [1] is 5.26 PBM z-score against 500 random probes.

B13: NRC3_wobSeed98_DR4_G15A_o1 (dsDNA)
DNA 1: GCACTAGTTGGTCAACTGAGGTCACACACAATTCGGGCGATTGACAGCGTAGAATGAAGG
DNA 2: CCTTCATTCTACGCTGTCAATCGCCCGAATTGTGTGTGACCTCAGTTGACCAACTAGTGC
For the molecule B13, in [1], the binding signal was 5.62 PBM z-score against 500 random probes.

B14: NRC3_wobSeed98_DR4_T8G_o1 (dsDNA)
DNA 1: GCACTAGGTGGTCAGCTGAGGTCACACACAATTCGGGCGATTGACAGCGTAGAATGAAGG
DNA 2: CCTTCATTCTACGCTGTCAATCGCCCGAATTGTGTGTGACCTCAGCTGACCACCTAGTGC
B14: the binding signal in [1] is 5.35 PBM z-score against 500 random probes.

B15: NRC3_wobSeed97_DR4_A17T_o1 (dsDNA)
DNA 1: GCCAAACTAGGTCACGTAAGGTCAAAGTCGAATGACGCGATTGACAGCGTAGAATGAAGG
DNA 2: CCTTCATTCTACGCTGTCAATCGCGTCATTCGACTTTGACCTTACGTGACCTAGTTTGGC
With B15, the binding signal in [1] was 5.77 PBM z-score against 500 random probes.

B16: NRC3_wobSeed97_DR4_A17C_o1 (dsDNA)
DNA 1: GCCAAACTAGGTCACGCAAGGTCAAAGTCGAATGACGCGATTGACAGCGTAGAATGAAGG
DNA 2: CCTTCATTCTACGCTGTCAATCGCGTCATTCGACTTTGACCTTGCGTGACCTAGTTTGGC
Consider B16, for which, in series [1], the binding signal is 5.55 PBM z-score against 500 random probes.

B17: NRC3_wobSeed106_DR4_G15T_o1 (dsDNA)
DNA 1: GCCTCGAAAGGTCGTTTGAGGTGAGTATACGGATAAGCGATTGACAGCGTAGAATGAAGG
DNA 2: CCTTCATTCTACGCTGTCAATCGCTTATCCGTATACTCACCTCAAACGACCTTTCGAGGC
Take B17: in [1], the binding signal is 5.63 PBM z-score against 500 random probes.

B18: NRC3_wobSeed106_DR4_T4G_o1 (dsDNA)
DNA 1: GCCGCGAAAGGTCGGTTGAGGTGAGTATACGGATAAGCGATTGACAGCGTAGAATGAAGG
DNA 2: CCTTCATTCTACGCTGTCAATCGCTTATCCGTATACTCACCTCAACCGACCTTTCGCGGC
On to B18, for which the binding signal in series [1] was 5.31 PBM z-score against 500 random probes.

B19: NRC3_wobSeed106_DR4_G15A_o1 (dsDNA)
DNA 1: GCCTCGAAAGGTCGATTGAGGTGAGTATACGGATAAGCGATTGACAGCGTAGAATGAAGG
DNA 2: CCTTCATTCTACGCTGTCAATCGCTTATCCGTATACTCACCTCAATCGACCTTTCGAGGC
For B19, the binding signal in [1] is 5.36 PBM z-score against 500 random probes.
